In patent US6051217, “Therapeutic uses of interleukin-3 (IL-3) multiple mutation polypeptides” (G. D. Searle & Co., dated 2000):
Numbering of substitutions follows the chain as printed.

T1: hIL-3 receptor (human, UniProt P26951)
T1 sequence: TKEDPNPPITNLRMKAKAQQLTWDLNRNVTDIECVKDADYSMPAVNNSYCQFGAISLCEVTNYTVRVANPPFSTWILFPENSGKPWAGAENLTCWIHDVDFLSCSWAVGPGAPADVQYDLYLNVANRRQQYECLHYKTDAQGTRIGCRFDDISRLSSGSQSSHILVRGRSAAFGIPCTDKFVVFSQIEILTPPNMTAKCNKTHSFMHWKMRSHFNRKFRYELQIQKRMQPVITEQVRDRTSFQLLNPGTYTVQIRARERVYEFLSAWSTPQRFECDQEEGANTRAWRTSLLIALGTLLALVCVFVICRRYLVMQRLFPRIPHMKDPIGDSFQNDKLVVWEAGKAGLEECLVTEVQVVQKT

B1: pMON13287 polypeptide (ligand)
chain: MANCSIMIDEIIHHLKRPPAPLLDPNNLNAEDVDILMERNLRLPNLESFVRAVKNLENASGIEAILRNLQPCLPSATAAPSRHPIIIKAGDWQEFREKLTFYLVTLEQAQEQQ
B2: pMON13370 polypeptide (ligand)
chain: B1 chain with V33M, D34S, E38D
B3: pMON13391 polypeptide (ligand)
chain: B1 chain with L22S
B4: pMON13313 polypeptide (ligand)
chain: B1 chain with Q70V, I86T, T105S, Q108H
B5: pMON13397 polypeptide (ligand)
chain: B1 chain with Q70W, K88R, A89M
B6: pMON13369 polypeptide (ligand)
chain: B1 chain with A30D, D34S, E38D
B7: pMON13289 polypeptide (ligand)
chain: B1 chain with R17V, P25S, A30S, V33M, E47L, S48A
B8: pMON13379 polypeptide (ligand)
chain: B1 chain with D34S, E38D, T100Q
B9: pMON13367 polypeptide (ligand)
chain: B1 chain with D34S, E38D
B10: pMON13295 polypeptide (ligand)
chain: B1 chain with R17V, P25S, A30S, V33M, E47L, S48A, Q70V, I86T, T105S, Q108H
B11: pMON13380 polypeptide (ligand)
chain: B1 chain with I11A, R17V, P25S, A30S, V33M, E47L, S48A, T100Q
B12: pMON13374 polypeptide (ligand)
chain: B1 chain with A30S, V33M, D34S, E38D
B13: pMON13387 polypeptide (ligand)
chain: B1 chain with E38D
B14: pMON13366 polypeptide (ligand)
chain: B1 chain with A30N, D34S, E38D
B15: pMON13382 polypeptide (ligand)
chain: B1 chain with T100Q, V104W
B16: pMON13388 polypeptide (ligand)
chain: B1 chain with E38D, P44S
B17: pMON13393 polypeptide (ligand)
chain: B1 chain with I11A, L22S, A30D, V33M, D34S
B18: pMON13312 polypeptide (ligand)
chain: B1 chain with A20N, A30S, V33M, L43T, E47L, S48A, N55H, Q70V, I86T
B19: pMON13392 polypeptide (ligand)
chain: B1 chain with A30D
B20: pMON13475 polypeptide (ligand)
chain: B1 chain with I11A, A30D, D34S, E38D
B21: pMON13389 polypeptide (ligand)
chain: B1 chain with A30D, V33M
B22: pMON13288 polypeptide (ligand)
chain: B1 chain with A20N, A30S, V33M, L43T, E47L, S48A, N55H
B23: pMON13381 polypeptide (ligand)
chain: B1 chain with Q70W
B24: pMON13384 polypeptide (ligand)
chain: B1 chain with T100Q
B25: pMON13368 polypeptide (ligand)
chain: B1 chain with I11A, R17V, P25S, A30S, V33M, E47L, S48A
B26: pMON13373 polypeptide (ligand)
chain: B1 chain with A30D, V33M, D34S, E38D
B27: pMON13385 polypeptide (ligand)
chain: B1 chain with R17V, A20R, L22S
B28: pMON13290 polypeptide (ligand)
chain: B1 chain with Q70V, I86T
B29: pMON13396 polypeptide (ligand)
chain: B1 chain with K88R, A89M
B30: pMON13292 polypeptide (ligand)
chain: B1 chain with R17V, P25S, A30S, V33M, E47L, S48A, Q70V, I86T
B31: pMON13301 polypeptide (ligand)
chain: MANCSIMIDEIIHHLKRPPAPLLDPNNLNAEDVDILMERNLRLPNLESFVRAVKNLENASAIESILKNLLPCLPLATAAPTRHPIHIKDGDWNEFRRKLTFYLKTLENAQAQQ
B32: pMON13302 polypeptide (ligand)
chain: B31 chain with A20N, A30S, V33M, L43T, E47L, S48A, N55H
B33: pMON13303 polypeptide (ligand)
chain: B31 chain with R17V, P25S, A30S, V33M, E47L, S48A
B34: pMON13294 polypeptide (ligand)
chain: MANCSIMIDEIIHHLKRPPNPLLDPNNLNSEDMDILMERNLRTPNLLAFVRAVKHLENASGIEAILRNLVPCLPSATAAPSRHPITIKAGDWQEFREKLTFYLVSLEHAQEQQ
B35: pMON13285 polypeptide (ligand)
chain: MANCSNMIDEIITHLKQPPLPLLDFNNLNDEDMSILMDNNLRRPNLEAFNRAVKSLQNASAIESILKNLLPCLPLATAAPTRHPIHIKDGDWNEFRRKLTFYLKTLENAQAQQ
B36: pMON13326 polypeptide (ligand)
chain: B35 chain with K104W
B37: pMON13286 polypeptide (ligand)
chain: B35 chain with D38E
B38: pMON13330 polypeptide (ligand)
chain: B35 chain with H83R, H86I, K88R, K104W
B39: pMON13329 polypeptide (ligand)
chain: B35 chain with D38E, H86I, K88R, K104W
B40: pMON13325 polypeptide (ligand)
chain: B35 chain with D38E, K104W
B41: pMON13375 polypeptide (ligand)
chain: MANCSIMIDEIIHHLKRPPAPLLDPNNLNAEDVDILMERNLRLPNLESFVRAVKNLENASGIEAILRNLQPCLPSATAAPSRHPIIIKAGDWQEFREKLTFYLVTLE
B42: pMON13404 polypeptide (ligand)
chain: B41 chain with T100Q
B43: pMON13376 polypeptide (ligand)
chain: B41 chain with A2D, I11A, T100Q
B44: pMON13364 polypeptide (ligand)
chain: NCSIMIDEIIHHLKRPPNPLLDPNNLNSEDMDILMERNLRTPNLLAFVRAVKHLENASAIESILKNLLPCLPLATAAPTRHPIHIKDGDWNEFRRKLTFYLKTLENAQAQQ
B45: pMON13298 polypeptide (ligand)
chain: MANCSNMIDEIITHLKQPPLPLLDFNNLNGEDQDILMENNLRRPNLEAFNRAVKSLQNASGIEAILRNLQPCLPSATAAPSRHPIIIKAGDWQEFREKLTFYLVTLEQAQEQQ
B46: pMON13300 polypeptide (ligand)
chain: B45 chain with Q70V, I86T, T105S, Q108H
B47: pMON13299 polypeptide (ligand)
chain: B45 chain with Q70V, I86T

Molecular target: T1, hIL-3 receptor
Assay: cell-based or functional assay

| Relative Biological Activity (AML 193 proliferation) | Binder |
| --- | --- |
| 26 EC50 (1-133)hIL-3 / EC50 mutant | B1 |
| 6 EC50 (1-133)hIL-3 / EC50 mutant | B2 |
| 30 EC50 (1-133)hIL-3 / EC50 mutant | B3 |
| 8 EC50 (1-133)hIL-3 / EC50 mutant | B4 |
| 16 EC50 (1-133)hIL-3 / EC50 mutant | B5 |
| 10 EC50 (1-133)hIL-3 / EC50 mutant | B6 |
| 13 EC50 (1-133)hIL-3 / EC50 mutant | B7 |
| 0.9 EC50 (1-133)hIL-3 / EC50 mutant | B8 |
| 36 EC50 (1-133)hIL-3 / EC50 mutant | B9 |
| 3 EC50 (1-133)hIL-3 / EC50 mutant | B10 |
| 0.05 EC50 (1-133)hIL-3 / EC50 mutant | B11 |
| 6 EC50 (1-133)hIL-3 / EC50 mutant | B12 |
| 32 EC50 (1-133)hIL-3 / EC50 mutant | B13 |
| 38 EC50 (1-133)hIL-3 / EC50 mutant | B14 |
| 38 EC50 (1-133)hIL-3 / EC50 mutant | B15 |
| 23 EC50 (1-133)hIL-3 / EC50 mutant | B16 |
| 32 EC50 (1-133)hIL-3 / EC50 mutant | B17 |
| 4 EC50 (1-133)hIL-3 / EC50 mutant | B18 |
| 17 EC50 (1-133)hIL-3 / EC50 mutant | B19 |
| 7 EC50 (1-133)hIL-3 / EC50 mutant | B20 |
| 10 EC50 (1-133)hIL-3 / EC50 mutant | B21 |
| 24 EC50 (1-133)hIL-3 / EC50 mutant | B22 |
| 10 EC50 (1-133)hIL-3 / EC50 mutant | B23 |
| 0.25 EC50 (1-133)hIL-3 / EC50 mutant | B24 |

| Relative Biological Activity (AML 193 proliferation) | Binder |
| --- | --- |
| 1.6 EC50 (1-133)hIL-3 / EC50 mutant | B25 |
| 12 EC50 (1-133)hIL-3 / EC50 mutant | B26 |
| 1 EC50 (1-133)hIL-3 / EC50 mutant | B27 |
| 20 EC50 (1-133)hIL-3 / EC50 mutant | B28 |
| 20 EC50 (1-133)hIL-3 / EC50 mutant | B29 |
| 6 EC50 (1-133)hIL-3 / EC50 mutant | B30 |
| 2 EC50 (1-133)hIL-3 / EC50 mutant | B31 |
| 1.2 EC50 (1-133)hIL-3 / EC50 mutant | B32 |
| 0.6 EC50 (1-133)hIL-3 / EC50 mutant | B33 |
| 3 EC50 (1-133)hIL-3 / EC50 mutant | B34 |
| 32 EC50 (1-133)hIL-3 / EC50 mutant | B35 |
| 25 EC50 (1-133)hIL-3 / EC50 mutant | B36 |
| 8 EC50 (1-133)hIL-3 / EC50 mutant | B37 |
| 19 EC50 (1-133)hIL-3 / EC50 mutant | B38 |
| 10 EC50 (1-133)hIL-3 / EC50 mutant | B39 |
| 8 EC50 (1-133)hIL-3 / EC50 mutant | B40 |
| 14 EC50 (1-133)hIL-3 / EC50 mutant | B41 |
| 1.3 EC50 (1-133)hIL-3 / EC50 mutant | B42 |
| 0.4 EC50 (1-133)hIL-3 / EC50 mutant | B43 |
| 13 EC50 (1-133)hIL-3 / EC50 mutant | B44 |
| 3 EC50 (1-133)hIL-3 / EC50 mutant | B45 |
| 3 EC50 (1-133)hIL-3 / EC50 mutant | B46 |
| 2 EC50 (1-133)hIL-3 / EC50 mutant | B47 |
